We go through nine molecules from US20230303681A1 (published 2023).

Several values for one entry are separate records, joined by “and”; a condition that tells them apart may be missing. Identical values can stand only once.

Test [1] deals with T1, human TMEM106B (human, UniProt Q9NUM4 2-274).
T1 construct: Full-length, on transiently transfected HEK293 cells, or natively expressed on HeLa, U251 and A549 cells; also called huTMEM106B; huTMEM
The test can be described thus: FACS A549.
Description: (§1) All cells were cultured in either T75 or T150 flasks. […] The enzyme was quenched by addition of fresh media, and the cells were then distributed into 96-well plates for FACS analysis.
(§2) FACS analysis was performed as follows. Each cell type was aliquoted in 96-well round bottom plates (2x10^5 cells per well), washed once with FACS buffer (PBS + 2% FBS + 1 mM EDTA), and incubated with 50 µL of hybridoma supernatant or purified antibody (10 µg/ml in FACS buffer) on ice for 1 hour. […] Following this secondary incubation, the cells were again washed 2x with ice-cold FACS buffer and resuspended in a final volume of 50 µL of FACS buffer + 0.25 µl/well propidium iodide (Fisher Scientific # BDB556463). Analysis was performed on a FACSCanto system (BD Biosciences) or iQue (Intellicyt), with sort gates drawn to exclude dead (i.e., propidium iodide positive) cells.
(§3) Data is presented as mean fluorescence intensity (MFI).

Test [2] has as its target T1, human TMEM106B. The test can be described thus: FACS HeLa.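 Further: flow cytometry of cells incubated with hybridoma supernatant or purified antibody at 10 µg/ml for 1 h on ice, propidium iodide–positive dead cells gated out.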
Description: as §1, §2, §3
Test [3] concerns the target T1, human TMEM106B. The test can be described thus: FACS U251.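 Further: flow cytometry of cells exposed to antibody (purified at 10 µg/mL, or hybridoma supernatant) for 1 h on ice, with propidium iodide-positive dead cells gated out.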
Test [4] deals with T2, mouse TMEM106B (mouse, UniProt Q80X71 2-275).
T2 construct: on transiently transfected HEK293 cells, or natively expressed on mouse Neuro2a cells; also called moTMEM106B; murine TMEM106B
The test can be described thus: FACS Neuro2a.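 Further: flow cytometry of cells stained with antibody or hybridoma supernatant (purified antibody at 10 µg/ml) for 1 h on ice, propidium iodide–positive dead cells gated out.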
Description: as §1, §2, §3

Test [5] deals with T1, human TMEM106B. The test can be described thus: FACS A549, 1 ug/ml.
In test [6] the target is T1, human TMEM106B. The experiment in a line: FACS A549, 10 ug/ml.
Test [7] deals with T1, human TMEM106B. The experiment in a line: FACS HEK+huTMEM, 10 ug/ml.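 Further: purified mouse IgG antibodies at 10 µg/ml bound to HEK293 cells transiently expressing human TMEM106B, measured by flow cytometry as median fluorescence intensity of propidium iodide negative live cells.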
Description: (§4) Purified anti-TMEM106B antibodies were evaluated for their binding affinity to various TMEM106B-expressing cell lines including HEK293 transiently transfected with human/cyno/mouse TMEM106B, as well as HeLa cells and A549 cells. Antibodies tested for this experiment were mouse IgGs purified from hybridoma supernatant. Affinity binding to cells was determined as follows. Briefly, 1x10^5 cells were aliquoted per well in 96-well round bottom plates and incubated with 50 µL of purified anti-TMEM106B antibody at various concentrations (10x dilutions starting at 10 µg/ml) in FACS buffer (PBS + 2% FBS + 1 mM EDTA). […] Sorting was performed on a iQue (Intellicyt), with sort gates drawn to exclude dead (propidium iodide +) cells. Binding data was analyzed using median fluorescent intensity (MFI) and graphed in Prism. Values presented are MFI.
Test [8] has as its target T1, human TMEM106B. The experiment in a line: FACS HEK+huTMEM, 0.1 ug/ml.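 Further: flow cytometry binding of purified mouse IgG antibodies to HEK293 cells transiently expressing TMEM106B, read as median fluorescence intensity with propidium iodide positive dead cells gated out.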
Description: as §4
In test [9] the target is T1, human TMEM106B. The experiment in a line: FACS HEK+huTMEM, 1.0 ug/ml.
Test [10] addresses T1, human TMEM106B. The experiment in a line: FACS HEK+huTMEM, 0.01 ug/ml.
Test [11] has as its target T1, human TMEM106B. The test can be described thus: FACS, HEK293 transfectants.
Description: Initial screening of the anti-TMEM106B hybridomas was performed as follows.
For screening of the hybridoma cell culture supernatants, humanTMEM106B-transfected HEK293 cells were aliquoted in 96-well round bottom plates (2x10^5 cells per well) and incubated with 50 µL of hybridoma cell culture supernatant on ice for 30 minutes. […] Cell sorting was performed on a FACS Canto system (BD Biosciences) or iQue (Intellicyt), with sort gates drawn to exclude dead (i.e., propidium iodide-positive) cells. Median fluorescence intensity (MFI) of anti-mouse-APC MFI on TMEM106B+ HEK293 cells was calculated for each clone, and those displaying a signal of at least 2-fold over background compared to a secondary-antibody only well were taken forward for further analysis and characterization.
For test [12], the target named is T3, GST (Pierce) (UniProt P08515 1-218 = GST, limits assumed).
T3 construct: control for the GST part of the fusion protein; also called GST protein; Glutathione-S-transferase
The test can be described thus: ELISA, coated GST.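 Further: ELISA on plates coated with GST alone at 1-10 µg/ml, antibodies applied at 100-1000x dilution, bound antibody detected by peroxidase substrate colour after acid stop.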

Test [13] has as its target T4, GST-fusion human TMEM106B truncated (human).
T4 construct: also called GST-TMEM106B-truncated protein; GST-TMEM106B (truncated)
The test can be described thus: array SPR, Ab immobilised.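 Further: antibodies amine-coupled on an MX-96 chip, antigen flowed at 500 nM top concentration in 5-fold serial dilutions, GST alone run as nonspecific-binding control, duplicate measurements.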

The target of test [14] is T1, human TMEM106B. The test can be described thus: FACS, HEK293 transfectants. This is another data set of the same source. (In general: In flow cytometry, cells or beads pass a laser one at a time.)
Test [15] deals with T5, cynomolgus (cyno) TMEM106B (cynomolgus, UniProt Q9NUM4 2-274 (human entry)).
T5 construct: on transiently transfected HEK293 cells
The experiment in a line: FACS, HEK293 transfectants.

In test [16] the target is T2, mouse TMEM106B. The test can be described thus: FACS, HEK293 transfectants.
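Wherever fold over negative controls is given: hybridoma supernatants incubated 30 min on ice with human TMEM106B-expressing HEK293 cells, binding read as anti-mouse-APC median fluorescence on live cells, relative to secondary-antibody-only wells.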
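Wherever fold-change over parental HEK293 is given: flow cytometry binding of hybridoma supernatants to HEK293 cells transiently expressing human, cyno or mouse TMEM106B, read as anti-mouse-APC median fluorescence, live cells only, 30 min on ice.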

B1: anti-TMEM106B antibody TM-44 (antibody, V domains shown)
VH: EVQLVESGGGLVKPGGSLKLSCAASGFTFSDYGMHWVRQAPEKGLEWVAYISSGSSTIYYADTVKGRFTISRDNAKNTLFLQMTSLRSEDTAMYYCARNYGSPYAMDYWGQGTSVTVSS
VL: not shown
notes: mouse IgG from hybridoma
For B1, the MFI in test [1] was determined as 392; in test [2] it was 168; in test [3] it was 522; in [4], 202; in test [5] it was 404; in test [6], 466. In addition, the MFI came to 512 in test [7], 309 in test [8], 337 in test [9] and 300 in test [10].

B2: anti-TMEM106B antibody TM-30 (antibody, V domains shown)
VH: QVQLQQSGPELVKPGASVKLSCKASDNTFTNYDVNWVRQRPGQGLEWIGWIYPRDGTTIYNEKFKGRATLTVDTSSSTAYMELHSLTSEDSAVFFCARTLPQAMDYWGQGTSVTVSS
VL: DVLMTQSPLSLPVSLGDQVSISCRSSQTIVHRNGNTYLEWYLQKPGQSPKLLIYKVSNRFSGVPDRFSGSGSGTDFTLKISRVEAEDLGVYYCFQGSHLPWTFGGGTKLEIK
notes: mouse IgG from hybridoma
In the case of B2, the MFI in test [5] is 3030; in test [6] it was 4040; in [7] it was 61500; in test [8], 18400; in test [9], 63500; in [10] it was 3070. The “fold over negative controls” value in test [11] is greater than 2 fold.

B3: anti-TMEM106B antibody TM-32 (antibody, V domains shown)
VH: EVQLQQSGAELVRPGASVRLSCIASGFNIKDYYMYWVKQRPEQGLEWIGRIDPEDGDTEYVPKFQGKATMTADTSSNTAYLQLSSLTSEDIGVYYCTTRTWDLYYAVDNWGQGTSVTVSS
VL: DVLMTQTPLSLPVSLGDQASISCRSSQNIVHSNGNTYLEWYLQKPGQSPKLLIDKVSNRFSGVPDRFSGSGSGTDFTLKISRVEAEDLGIYYCFQGSHVPFTFGSGTKLEIK
For orientation: koff means the rate constant with which the complex falls apart. A low value points to a long-lived complex. The term kon denotes the rate constant with which the complex forms. High values mean fast association, low ones slow association. For the molecule B3, the binding result in test [12] is recorded as “no binding”. Further, the MFI in test [5] was 3930; in test [6], 6100; in test [7] it was 61100; in test [8] it was 20300; in test [9], 63300; in [10] it was 4100. Moreover, the “fold over negative controls” value in [11] is greater than 2 fold. Further, the koff in test [13] is 8.6e-05 s⁻¹ and 3.5e-05 s⁻¹. The kon in test [13] was 29000 M⁻¹ s⁻¹ and 40000 M⁻¹ s⁻¹.

B4: anti-TMEM106B antibody TM-16 (antibody, V domains shown)
VH: EVQLQQSGAELVRPGASVKLSCTTSGFNIKDYYMHWVKQRTEQGLEWIGRIDPEDGETKYAPEFQGKATITSDTSSNTAFLQLSSLTSEDTAVYYCASSQPFTYWGQGTLVTVSA
VL: QIVLTQSPAIMSASPGEKLTMTCSASSSLNYMYWYQQKPGSSPRLLIYDTSNLASGVPVRFSGSGSGTSYSLTISRMEAEDGATYYCQQWTSFPPTFGAGTKLELK
Consider B4, for which the MFI in test [1] stood at 605; in [2] it was 548; in [3], 292; in test [4], 392; in test [5], 409; in [6], 557. Moreover, the MFI in [7] came out at 5980; in test [8], 680; in test [9] it was 2140; in test [10] it was 351. The binding result in [12] is listed as “no binding”. In [11], the “fold over negative controls” value was greater than 2 fold. Moreover, the “fold-change over parental HEK293” value in test [14] came out at 8.3 fold; in test [15] it was 17.6 fold; in test [16], 1.42 fold.

B5: anti-TMEM106B antibody TM-20 (antibody, V domains shown)
VH: EVQLQQSGAELVRPGASVKLSCTTSGFNIKDYYMHWVKQRTEQGLEWIGRIDPEDGETKYAPEFQGKATITSDTSSNTAFLQLSSLTSEDTAVYYCASSQPFTYWGQGTLVTVSA
VL: QIVLTQSPAIMSASPGEKLTMTCSASSSLNYMYWYQQKPGSSPRLLIYDTSNLASGVPVRFRGSGSGTSYSLTISRMEAEDGATYYCQQWTSFPPTFGAGTKLELK
As for B5, the binding result in [12] is on record as “no binding”.

B6: anti-TMEM106B antibody TM-17 (antibody, V domains shown)
VH: QVQLQQSGAELIRPGTSVKVSCKASGYAFTDYLIEWVKQRPGQGLEWIGVINPGSGGTNYNEKFKGKAKLTADKSSSTAYMQLSSLTSEDSAVYFCVRSSYGVYVAYPMDYWGQGTSVTVSS
VL: DIQMTQSPSSLSASLGERVSLTCRASQDIGSNLNWLQQEPDGTIKRLIYATSSLDSGVPKRFSGSRSGSDYSLTISSLESEDFVDYYCLQYASSPRTFGGGTKLEIK
As usually defined, the Kd is the equilibrium constant for the complex coming apart. The low end stands for higher affinity, the high end for lower affinity. As for B6, the MFI in test [1] was 953; in test [2], 437; in test [3] it was 305; in test [4] it was 385; in [5], 379; in test [6], 425. Moreover, the MFI in test [7] was 3960; in test [8], 1910; in test [9] it was 2620; in test [10] it was 1150. The binding result in [12] is “no binding”. The “fold over negative controls” value in [11] was greater than 2 fold. Besides, the Kd in test [13] was 22 nM and 28 nM. In test [13], the koff is 0.00063 s⁻¹ and 0.00097 s⁻¹. For the same molecule, in [13], the kon is 29000 M⁻¹ s⁻¹ and 35000 M⁻¹ s⁻¹. Moreover, the “fold-change over parental HEK293” value worked out at 12.6 fold in test [14], 14.3 fold in test [15] and 6.42 fold in test [16].

B7: anti-TMEM106B antibody TM-11 (antibody, V domains shown)
VH: QVQLKQSGPGQVQPSQSLSITCTVSGFSLSDYGVHWVRQSPGKGLEWLGVIWNNGNTDYNAAFISRLSINKDNSKSQVFFKMTSLQADDTAIYYCVRSLRPLHFDYWGQGTTVTVSS
VL: DIVMTQSPSSLTMSVGQKVTMHCKSSQSLLNSNNLQNYLAWYQQKPGQSPTLLVYFASIRESGVPDRFIGSGSGTDFTLTISSVQAEDLADYFCQQHYNTPFTFGSGTKLEIR
Take B7: the MFI in test [1] was 1340; in test [2] it was 1870; in test [3], 866; in test [4], 1040; in test [5] it was 2870; in [6] it was 5580. Moreover, the MFI in test [7] amounted to 57900; in test [8], 16200; in test [9], 54600; in test [10], 4280. The binding result in [12] is “no binding”. Moreover, the “fold over negative controls” value in test [11] is greater than 2 fold. Binding in [13] was put at a Kd of 2.1 nM. Also, the koff in test [13] was 5.2e-05 s⁻¹ and 5.7e-05 s⁻¹. Also, in test [13], the kon was 24000 M⁻¹ s⁻¹ and 27000 M⁻¹ s⁻¹. The “fold-change over parental HEK293” value in test [14] amounted to 9.96 fold; in test [15], 23.7 fold; in [16] it was 18.3 fold.

B8: anti-TMEM106B antibody TM-24 (antibody, V domains shown)
VH: QVQLKQSGPGQVQPSQSLSITCTVSGFSLSDYGVHWVRQSPGKGLEWLGVIWNNGNTDYNAAFISRLSINKDNSKSQVFFKMTSLQADDTAIYYCVRSLRPLHFDYWGQGTTVTVSS
VL: DIVMTQSPSSLTMSVGQKVTMNCKSSQSLLNSNNQQNYLAWYQQKPGQSPKLLVYFASIRESGVPDRFIGSGSGTDFTLTINSVQAEDLADYFCQQHYSTPFTFGSGTKLEIR
notes: mouse IgG from hybridoma
Take B8: the MFI came to 2880 in test [5]; 4480 in test [6]; 66300 in test [7]; 22000 in test [8]; 64500 in [9]; 3620 in test [10]. Moreover, the “fold over negative controls” value in test [11] is greater than 2 fold.

B9: anti-TMEM106B antibody TM-10 (antibody, V domains shown)
VH: QVQLQQSGAELVKPGASVKISCKGSGYAFSSYWMNWVKQRPGKGLEWIGQIYPGDGDTNYNGKFKGKATLTADKSSTTAYIHLSSLTSEDSAVYFCARWGHYDEAMDDWGQGTSVTVSS
VL: DVVMTQTPLSLPVSLGDQASISCRSSQSLVHSNGKTYLHWYVQKPGQSPKLLIYKISNRFSGVPDRFSGSGSGTDFTLKISRVEAEDLGVYFCSQITHVPWTFGGGTKLESK
On to B9, for which the MFI in [1] is 823; in [2], 596; in test [3], 328; in [4] it was 604; in [5], 663; in test [6], 1090. The MFI was 36500 in test [7], 21000 in [8], 44400 in test [9] and 3360 in [10]. Besides, the binding result in test [12] is “no binding”. Also, the “fold over negative controls” value in test [11] was greater than 2 fold. Further, the Kd in [13] is 17 nM and 22 nM. Besides, the koff in [13] is 0.00054 s⁻¹ and 0.0006 s⁻¹. For the same molecule, the kon in test [13] is 32000 M⁻¹ s⁻¹ and 28000 M⁻¹ s⁻¹. The “fold-change over parental HEK293” value was determined as 37.1 fold in [14], 65.9 fold in test [15] and 45.9 fold in test [16].
